Results reported in patent US20240116997A1.

Columns and labels:
Assay in all cases: cell-based or functional assay
[1] = molecular target: C147 (V11I, C38A, K53A, D54A, C76A, C127A) (human) (UniProt Q14116)
[2] = molecular target: IL-18 polypeptide SEQ ID NO: 40 (E06K, S55A) (human) (UniProt Q14116)
[3] = molecular target: C151 (V11I, D35A, C38A, K53A, C76A, C127A) (human) (UniProt Q14116)
[4] = molecular target: C157 (V11I, C38A, K53A, C76A, C127A, D132A) (human) (UniProt Q14116)
[5] = molecular target: IL-18 polypeptide SEQ ID NO: 4 (E6K, C38A, K53A, C68A, M86C) (human) (UniProt Q14116)
[6] = molecular target: C163 (V11I, C38A, C76A, Q103K, C127A) (human) (UniProt Q14116)
[7] = molecular target: C149 (V11I, E31A, C38A, K53A, C76A, C127A) (human) (UniProt Q14116)
[8] = molecular target: C146 (SEQ ID NO: 79; V11I, C38A, M51G, K53A, C76A, C127A) (human) (UniProt Q14116)
[9] = molecular target: C162 (K8E, V11I, C38A, C76A, Q103R, C127A) (human) (UniProt Q14116)
[10] = molecular target: IL-18 polypeptide SEQ ID NO: 39 (E06K, K53A) (human) (UniProt Q14116)
[11] = molecular target: C154 (V11I, E31A, D37A, C38A, K53A, C76A, C127A) (human) (UniProt Q14116)
[12] = molecular target: C144 (V11I, C38A, K53A, T63A, C76A, C127A) (human) (UniProt Q14116)
[13] = molecular target: IL-18 polypeptide SEQ ID NO: 52 (E06K, T63A) (human) (UniProt Q14116)
[14] = molecular target: IL-18 polypeptide SEQ ID NO: 34 (E06K, K53A, S55A) (human) (UniProt Q14116)
[15] = molecular target: C150 (V11I, T34A, C38A, K53A, C76A, C127A) (human) (UniProt Q14116)
[16] = molecular target: IL-18 polypeptide SEQ ID NO: 9 (E6K, C38A, K53A, C68A, D98C) (human) (UniProt Q14116)
[17] = molecular target: C159 (V11I, C38A, K53A, C76A, H109A, C127A) (human) (UniProt Q14116)
[18] = molecular target: IL-18 polypeptide SEQ ID NO: 54 (E06K, K53A, C38S, C68S, C76S, C127S, K70C) (human) (UniProt Q14116)
[19] = molecular target: IL-18 WT (native sequence, SEQ ID NO: 1) (human) (UniProt Q14116)
[20] = molecular target: IL-18 polypeptide SEQ ID NO: 42 (E06K, K53A, S55A, T63A) (human) (UniProt Q14116)
[21] = molecular target: IL-18 polypeptide SEQ ID NO: 57 (E6K, C38S, K53A) (human) (UniProt Q14116)
[22] = molecular target: IL-18 polypeptide SEQ ID NO: 43 (E06K, K53A, S55A, Y01G) (human) (UniProt Q14116)
[23] = molecular target: C164 (V11I, C38A, S55H, C76A, C127A) (human) (UniProt Q14116)
[24] = molecular target: IL-18 polypeptide SEQ ID NO: 51 (T63A) (human) (UniProt Q14116)
[25] = molecular target: C166 (V11I, C38A, S55T, C76A, C127A) (human) (UniProt Q14116)
[26] = molecular target: C168 (V11I, C38A, C76A, S105K, C127A) (human) (UniProt Q14116)
[27] = molecular target: IL-18 polypeptide SEQ ID NO: 46 (E06K, K53A, S55A, M51G) (human) (UniProt Q14116)
[28] = molecular target: C153 (V11I, D37A, C38A, K53A, C76A, C127A) (human) (UniProt Q14116)
[29] = molecular target: IL-18 polypeptide SEQ ID NO: 53 (K53A, T63A) (human) (UniProt Q14116)
[30] = molecular target: IL-18 polypeptide SEQ ID NO: 60 (E6K, C38Q, K53A) (human) (UniProt Q14116)
[31] = molecular target: C156 (V11I, C38A, N41A, K53A, C76A, C127A) (human) (UniProt Q14116)
[32] = molecular target: IL-18 polypeptide SEQ ID NO: 6 (E6K, V11I, C38A, K53A, T63A, C68A, C76A, D98C, C127A) (human) (UniProt Q14116)
[33] = molecular target: IL-18 polypeptide SEQ ID NO: 48 (C38S, C68S, C76S, C127S, K70C) (human) (UniProt Q14116)
[34] = molecular target: C160 (V11I, C38A, K53A, C76A, D110A, C127A) (human) (UniProt Q14116)
[35] = molecular target: IL-18 polypeptide SEQ ID NO: 37 (S55A) (human) (UniProt Q14116)
[36] = molecular target: IL-18 polypeptide SEQ ID NO: 36 (K53A) (human) (UniProt Q14116)

Chain of IL-18 polypeptide SEQ ID NO: 37 (S55A) (human) (Q14116 37-193 S91A): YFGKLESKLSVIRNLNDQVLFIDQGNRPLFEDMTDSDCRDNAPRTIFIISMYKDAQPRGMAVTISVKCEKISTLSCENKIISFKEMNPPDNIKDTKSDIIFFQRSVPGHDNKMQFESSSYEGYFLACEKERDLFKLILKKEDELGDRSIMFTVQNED
Chain of C163 (V11I, C38A, C76A, Q103K, C127A) (human) (Q14116 37-193 V47I/C74A/C112A/Q139K/C163A): as the sequence (Q14116 37-193 S91A) above, with V11I, C38A, A55S, C76A, Q103K, C127A counted along it
Chain of C160 (V11I, C38A, K53A, C76A, D110A, C127A) (human) (Q14116 37-193 V47I/C74A/K89A/C112A/D146A/C163A): as the sequence (Q14116 37-193 S91A) above, with V11I, C38A, K53A, A55S, C76A, D110A, C127A counted along it
Chain of C149 (V11I, E31A, C38A, K53A, C76A, C127A) (human) (Q14116 37-193 V47I/E67A/C74A/K89A/C112A/C163A): as the sequence (Q14116 37-193 S91A) above, with V11I, E31A, C38A, K53A, A55S, C76A, C127A counted along it
Chain of C151 (V11I, D35A, C38A, K53A, C76A, C127A) (human) (Q14116 37-193 V47I/D71A/C74A/K89A/C112A/C163A): as the sequence (Q14116 37-193 S91A) above, with V11I, D35A, C38A, K53A, A55S, C76A, C127A counted along it
Chain of C157 (V11I, C38A, K53A, C76A, C127A, D132A) (human) (Q14116 37-193 V47I/C74A/K89A/C112A/C163A/D168A): as the sequence (Q14116 37-193 S91A) above, with V11I, C38A, K53A, A55S, C76A, C127A, D132A counted along it
Chain of C153 (V11I, D37A, C38A, K53A, C76A, C127A) (human) (Q14116 37-193 V47I/D73A/C74A/K89A/C112A/C163A): as the sequence (Q14116 37-193 S91A) above, with V11I, D37A, C38A, K53A, A55S, C76A, C127A counted along it
Chain of C166 (V11I, C38A, S55T, C76A, C127A) (human) (Q14116 37-193 V47I/C74A/S91T/C112A/C163A): as the sequence (Q14116 37-193 S91A) above, with V11I, C38A, A55T, C76A, C127A counted along it
Chain of C156 (V11I, C38A, N41A, K53A, C76A, C127A) (human) (Q14116 37-193 V47I/C74A/N77A/K89A/C112A/C163A): as the sequence (Q14116 37-193 S91A) above, with V11I, C38A, N41A, K53A, A55S, C76A, C127A counted along it
Chain of C146 (SEQ ID NO: 79; V11I, C38A, M51G, K53A, C76A, C127A) (human) (Q14116 37-193 V47I/C74A/M87G/K89A/C112A/C163A): as the sequence (Q14116 37-193 S91A) above, with V11I, C38A, M51G, K53A, A55S, C76A, C127A counted along it
Chain of C154 (V11I, E31A, D37A, C38A, K53A, C76A, C127A) (human) (Q14116 37-193 V47I/E67A/D73A/C74A/K89A/C112A/C163A): as the sequence (Q14116 37-193 S91A) above, with V11I, E31A, D37A, C38A, K53A, A55S, C76A, C127A counted along it
Chain of IL-18 polypeptide SEQ ID NO: 43 (E06K, K53A, S55A, Y01G) (human) (Q14116 37-193 Y37G/E42K/K89A/S91A): as the sequence (Q14116 37-193 S91A) above, with Y1G, E6K, K53A counted along it
Chain of C162 (K8E, V11I, C38A, C76A, Q103R, C127A) (human) (Q14116 other isoform, or with tags, fused parts or gaps V11I C38A C76A Q103R C127A V11I C38A C76A Q103R C127A): as the sequence (Q14116 37-193 S91A) above, with K8E, V11I, C38A, A55S, C76A, Q103R, C127A counted along it
Chain of IL-18 polypeptide SEQ ID NO: 46 (E06K, K53A, S55A, M51G) (human) (Q14116 37-193 E42K/M87G/K89A/S91A): as the sequence (Q14116 37-193 S91A) above, with E6K, M51G, K53A counted along it
Chain of C159 (V11I, C38A, K53A, C76A, H109A, C127A) (human) (Q14116 37-193 V47I/C74A/K89A/C112A/H145A/C163A): as the sequence (Q14116 37-193 S91A) above, with V11I, C38A, K53A, A55S, C76A, H109A, C127A counted along it
Chain of IL-18 polypeptide SEQ ID NO: 52 (E06K, T63A) (human) (Q14116 37-193 E42K/T99A): as the sequence (Q14116 37-193 S91A) above, with E6K, A55S, T63A counted along it
Chain of IL-18 polypeptide SEQ ID NO: 53 (K53A, T63A) (human) (Q14116 37-193 K89A/T99A): as the sequence (Q14116 37-193 S91A) above, with K53A, A55S, T63A counted along it
Chain of IL-18 polypeptide SEQ ID NO: 54 (E06K, K53A, C38S, C68S, C76S, C127S, K70C) (human) (Q14116 37-193 E42K/C74S/K89A/C104S/K106C/C112S/C163S): as the sequence (Q14116 37-193 S91A) above, with E6K, C38S, K53A, A55S, C68S, K70C, C76S, C127S counted along it
Chain of IL-18 WT (native sequence, SEQ ID NO: 1) (human) (Q14116 37-193): as the sequence (Q14116 37-193 S91A) above, with A55S counted along it
Chain of C164 (V11I, C38A, S55H, C76A, C127A) (human) (Q14116 37-193 V47I/C74A/S91H/C112A/C163A): as the sequence (Q14116 37-193 S91A) above, with V11I, C38A, A55H, C76A, C127A counted along it
Chain of IL-18 polypeptide SEQ ID NO: 9 (E6K, C38A, K53A, C68A, D98C) (human) (Q14116 other isoform, or with tags, fused parts or gaps C38A K53A C68A D98C C38A K53A C68A D98C): as the sequence (Q14116 37-193 S91A) above, with E6K, C38A, K53A, A55S, C68A, D98C counted along it
Chain of IL-18 polypeptide SEQ ID NO: 60 (E6K, C38Q, K53A) (human) (Q14116 other isoform, or with tags, fused parts or gaps C38Q K53A C38Q K53A): as the sequence (Q14116 37-193 S91A) above, with E6K, C38Q, K53A, A55S counted along it
Chain of C147 (V11I, C38A, K53A, D54A, C76A, C127A) (human) (Q14116 37-193 V47I/C74A/K89A/D90A/C112A/C163A): as the sequence (Q14116 37-193 S91A) above, with V11I, C38A, K53A, D54A, A55S, C76A, C127A counted along it
Chain of IL-18 polypeptide SEQ ID NO: 51 (T63A) (human) (Q14116 37-193 T99A): as the sequence (Q14116 37-193 S91A) above, with A55S, T63A counted along it
Chain of IL-18 polypeptide SEQ ID NO: 57 (E6K, C38S, K53A) (human) (Q14116 other isoform, or with tags, fused parts or gaps C38S K53A C38S K53A): as the sequence (Q14116 37-193 S91A) above, with E6K, C38S, K53A, A55S counted along it
Chain of IL-18 polypeptide SEQ ID NO: 34 (E06K, K53A, S55A) (human) (Q14116 37-193 E42K/K89A/S91A): as the sequence (Q14116 37-193 S91A) above, with E6K, K53A counted along it
Chain of IL-18 polypeptide SEQ ID NO: 4 (E6K, C38A, K53A, C68A, M86C) (human) (Q14116 other isoform, or with tags, fused parts or gaps C38A K53A C68A M86C C38A K53A C68A M86C): as the sequence (Q14116 37-193 S91A) above, with E6K, C38A, K53A, A55S, C68A, M86C counted along it
Chain of IL-18 polypeptide SEQ ID NO: 40 (E06K, S55A) (human) (Q14116 37-193 E42K/S91A): as the sequence (Q14116 37-193 S91A) above, with E6K counted along it

IC50 (nM), IL-18BPa inhibition of IFNγ induction, NK-92 cells [1]: 5.05 nM
IC50 (nM), IL-18BPa inhibition of IFNγ induction, NK-92 cells [2]: 15 nM
IC50 (nM), IL-18BPa inhibition of IFNγ induction, NK-92 cells [3]: 7.85 nM
IC50 (nM), IL-18BPa inhibition of IFNγ induction, NK-92 cells [4]: 3.98 nM
IC50 (nM), IL-18BPa inhibition of IFNγ induction, NK-92 cells [5]: 396 nM
IC50 (nM), IL-18BPa inhibition of IFNγ induction, NK-92 cells [6]: 0.456 nM
IC50 (nM), IL-18BPa inhibition of IFNγ induction, NK-92 cells [7]: 21.3 nM
IC50 (nM), IL-18BPa inhibition of IFNγ induction, NK-92 cells [8]: 47.6 nM
IC50 (nM), IL-18BPa inhibition of IFNγ induction, NK-92 cells [9]: 0.823 nM
IC50 (nM), IL-18BPa inhibition of IFNγ induction, NK-92 cells [10]: > 703 nM
IC50 (nM), IL-18BPa inhibition of IFNγ induction, NK-92 cells [11]: 3.23 nM
IC50 (nM), IL-18BPa inhibition of IFNγ induction, NK-92 cells [12]: 10.2 nM
IC50 (nM), IL-18BPa inhibition of IFNγ induction, NK-92 cells [13]: 47.1 nM
IC50 (nM), IL-18BPa inhibition of IFNγ induction, NK-92 cells [14]: 229 nM
IC50 (nM), IL-18BPa inhibition of IFNγ induction, NK-92 cells [15]: 3.62 nM
IC50 (nM), IL-18BPa inhibition of IFNγ induction, NK-92 cells [16]: 961 nM
IC50 (nM), IL-18BPa inhibition of IFNγ induction, NK-92 cells [17]: 3.18 nM
IC50 (nM), IL-18BPa inhibition of IFNγ induction, NK-92 cells [18]: 23.5 nM
IC50 (nM), IL-18BPa inhibition of IFNγ induction, NK-92 cells [19]: 1.47 nM
IC50 (nM), IL-18BPa inhibition of IFNγ induction, NK-92 cells [20]: 1060 nM
IC50 (nM), IL-18BPa inhibition of IFNγ induction, NK-92 cells [21]: 1.62 nM
IC50 (nM), IL-18BPa inhibition of IFNγ induction, NK-92 cells [22]: 27.8 nM
IC50 (nM), IL-18BPa inhibition of IFNγ induction, NK-92 cells [23]: 0.885 nM
IC50 (nM), IL-18BPa inhibition of IFNγ induction, NK-92 cells [24]: 0.239 nM
IC50 (nM), IL-18BPa inhibition of IFNγ induction, NK-92 cells [25]: 0.809 nM
IC50 (nM), IL-18BPa inhibition of IFNγ induction, NK-92 cells [26]: 5.85 nM
IC50 (nM), IL-18BPa inhibition of IFNγ induction, NK-92 cells [27]: 0.189 nM
IC50 (nM), IL-18BPa inhibition of IFNγ induction, NK-92 cells [28]: 3.71 nM
IC50 (nM), IL-18BPa inhibition of IFNγ induction, NK-92 cells [29]: 18.2 nM
IC50 (nM), IL-18BPa inhibition of IFNγ induction, NK-92 cells [30]: 654 nM
IC50 (nM), IL-18BPa inhibition of IFNγ induction, NK-92 cells [31]: 6.08 nM
IC50 (nM), IL-18BPa inhibition of IFNγ induction, NK-92 cells [32]: 5.85 nM
IC50 (nM), IL-18BPa inhibition of IFNγ induction, NK-92 cells [33]: 0.114 nM
IC50 (nM), IL-18BPa inhibition of IFNγ induction, NK-92 cells [34]: 1.07 nM
IC50 (nM), IL-18BPa inhibition of IFNγ induction, NK-92 cells [35]: 4.46 nM
IC50 (nM), IL-18BPa inhibition of IFNγ induction, NK-92 cells [36]: 27.3 nM
Substance: Fc-fused human IL-18 binding protein isoform a (IL-18BPa) (from UniProt O95998 31-194) (Fc fusion)
